Laboratory results from publication PMC11415397, “The Alpha-Synuclein Gene (SNCA) is a Genomic Target of Methyl-CpG Binding Protein 2 (MeCP2)—Implications for Parkinson’s Disease and Rett Syndrome”.

How the values were obtained:
MeCP2 R255X [1] = target: T1, MeCP2 R255X (UniProt P51608 1-254); assay: EMSA; shift from 30 nM; 10 mM Tris pH 7.5, 1 mM EDTA, 100 mM KCl, 100 uM DTT, 5% glycerol, 10 ug/ml BSA, 30 min room temperature; 50 fmol probe in 5 ul; MeCP2 30-75 (nmol in Methods and legend, nM in Results); conditions: protein: recombinant; tags: His; label: IRDye700 at 5' of LUEGO (S27); three strands: S27 and S23 lie side by side (nick) on S24; blunt
MeCP2 wild type = MeCP2 wild type (UniProt P51608 1-486); assay: as above; conditions: protein: recombinant; tags: His; label: IRDye700 at 5' of LUEGO (S27); three strands: S27 and S23 lie side by side (nick) on S24; blunt
MeCP2 R255X [2] = target: T1, MeCP2 R255X; assay: EMSA; strongest shift, already at 30 nM; 10 mM Tris pH 7.5, 1 mM EDTA, 100 mM KCl, 100 uM DTT, 5% glycerol, 10 ug/ml BSA, 30 min room temperature; 50 fmol probe in 5 ul; MeCP2 30-75 (nmol in Methods and legend, nM in Results); conditions: protein: recombinant; tags: His; label: IRDye700 at 5' of LUEGO (S27); three strands: S27 and S25 lie side by side (nick) on S26; blunt

Binder	binding result (MeCP2 R255X [1])	binding result (MeCP2 wild type)	binding result (MeCP2 R255X [2])
SNCA intron 1 CpG1 probe, methylated (dsDNA, CpG 5mC, in vitro methylated (enzyme for the probe not stated in EMSA section)) DNA 1: GTGCCCTGGTCTGG DNA 2: CTGGCTTTCGTCCTGCTTCTGATATTCCCTTCTC DNA 3: GAGAAGGGAATATCAGAAGCAGGACGAAAGCCAGCCAGACCAGGGCAC	binds	binds	–
SNCA intron 1 CpG2 probe, methylated (dsDNA, CpG 5mC, in vitro methylated (enzyme for the probe not stated in EMSA section)) DNA 1: GTGCCCTGGTCTGG DNA 2: GCTGAGAGATTAGGCTGCTTCTCCGGGATCCGC DNA 3: GCGGATCCCGGAGAAGCAGCCTAATCTCTCAGCCCAGACCAGGGCAC	–	–	binds
